Source: the DeepSol protein solubility set

Assay: soluble on expression in E. coli; label from the status in PepcDB or PDB records

Row | Sequence | soluble on expression in E. coli
1 | MGSDKIHHHHHHMAIAPTLNIPQAKFLAMQYKFKAYVAGFGSGKTWVGCGGICKGMWEHPKINQGYFAPTYPQIRDIFYPTVEEVAHDWGLNVKINEGNKEVHFYAGRQYRGTTICRSMEKPQTIVGFKIGNALIDELDVMPAKKAQLAWRKIIARMRYNVAGLRNGIDVTTTPEGFKFVYQQFAKAVRDKPSLSTLYGLVQASTFDNEKNLPPDYIPSLMESYPPELIKAYLRGQFTNLTSGTIYHQFDRKLNNCREEEQPGEPLYIGMDFNVGKMAGVVHVLRLGLPFAVTEIIKAYDTPDMIRIIKERFWLCDGHDYRKVREIYIYPDASGDSRKSSNASATDIAQLKQAGFNVVVNASNPPVKDRINAMNAMFCNGNGERRYKVNVKRCPVYTESLEQQVWGENGEPDKTADNDHPNDAGGYFIVKQFPIIKPTGKVTQLRM | not soluble
2 | MGSDKIHHHHHHMAIKILSVDDEQDLEALLTQYFRRKIRKGEYEFSFAHNGLEALRMMLDHPDFDIILSDINMPEMDGLTLLTKINEMRNPALKCIIVSAYGDMENIRTAMNHGAFDFATKPIDMEDLERTIEKAVEQISFIKEAQKEHHQLEEIQYDLNVAREIQQSILPKQFPPFPQYKQFDLYATMSAAKAVGGDFYDFFLVDDNHLGFTIADVSDKGIPAAIFMAISRTVIRATALRQLSPAVCMKESNDLLCRESVNGMFVTTFYAILNIHTGDVVYCNGGHNRPVWIRKNDKVSLLPMTGGMALGVVPGLAYKEQSLKLEAGDSLFLYTDGISEAMNLRNEQYGDIRLVEACSSVKNQSPKSMIEGISESVQSFVNGATQSDDITMLALTYKG | not soluble
3 | MGSDKIHHHHHHMAKIGRNEPCPCGSGKKYKRCCMSGVGKQQADFVDSIEQMLAMNPDLSMDELNIIAEHQSNKINTTPHKDFCGLAPGQVNNWLYAPFPELEGITINTPSDLSTSPVMRYLKLMLETALANGGQIKATAKGNLPAALVKEASAFLPEFAVAPFERAISISEFAGANEDKFNALHYCRVLAKIAGIFKLKSNKFHVSAWAKHQYQRAGLESFFPIMLETAVYKYNWGYFDLWENEIPLQHFWLFMLWRLQHHKSHERLVDEMIQAFPDLLNELYEEEYMSDRDKLAVLIESRFIHRFLQFFGFVMVDPRRVIDGKRVAAQVTCLRSMHETFNFRIE | not soluble
4 | MGSDKIHHHHHHMAKLKISKKISTALINSLGAGVVPRVGVEYIAVGREKELKSLLQNLDDIAEGVAAFRFIIGNYGSGKSFLLQLIRNRAMEQGFVVADADLSSERRLAGSNNEGVATYRELMSHLATKTRPDGGALVSILEGWINKIQQEVVKETEMRPNDDGFDDQVESKIREVVQYIEGLVHGFDFGSVIIAYWRGYRMDDDNLKNAAMRWLRGEFTTKVEAKAALGVRVIIDDDSWYDYIKLFAKFVAEIGYKGLLILVDEAVHLYQISTTVTREKNYNRLLAMFNDTMQCKAEHLGIVVGGTTKFLEDPKRGLFADQAWQRRTKESRFVAQANVQENSGPVIRLNPLSEAEILTLLQRLAEIHALNFGYEQTLTNRELKEFVQEIINRLGAEALLTPGEIVRDFMSVLNILHQNPGIVFAELIHGSKFKPTAMGKNPNVDENGAAEFSL | not soluble
5 | MGSDKIHHHHHHMAKYPNTFHRASLMKQMTFADAEYAGKRKHTRRERFLIEMDQVVPWKGLIALIEPHYPKGEGGRPAYPLMAMLRIHLMQNWFGYSDPAMEEALYETTILRQFAGLSLDRIADETTILNFRRLLEKHELAGGILQVINGYLGDRGLMLRQGTVVDATIIHAPSSTKNKDGKRDPEMHQTKKGNQYFFGMKAHIGVDAESGLVHSLVGTAANVADVTQVDQLLHGEETYVSGDAGYTGVDKRAEHQDRQMIWSIAARPSRYKKHGEKSLIARVYRKIEFTKAQLRAKVEHPFRVIKRQFGYTKVRFRGLAKNTAQQATLFALSNLWMVRKRLLAMGEVRL | not soluble
6 | MGSDKIHHHHHHMALPVLICDDSAMARKQMARTLPKDWDVDITFATNGAEGLEAIRAGKGEVVFLDLNMPVMDGYEVLQTIQQQDLPALVIVVSGDIQIKAHERVKALGALDFIQKPVSAEAIAGILQEYGILVPGEGEGDEAEDNPLLKVDMRDACQEIANVAMGRAADLLAKLLDVFVVLPIPNVNVLEVSELTMALKATETSAKVTALCQGFIGAGVAGEALLLFHDSSFQDMAKLMKLDGPGDEATEVEVLIDTGNVLIGAFLNGIAEQLDMHFSQAHPVVLGRHCTVNDLIHDNAEKWHRTLAMEINYRIEDHNIECDLLLLFTEDSLPTLNYKLGYMLDTD | not soluble
7 | MGSDKIHHHHHHMAPDLASLQRISGDSAIDQWLQVPGSWVEEPNERRGGASGVQRVYTGDGRLLYRKQQTGHVYRDWQRPFGYPTAMRERDALRAFESLGIRVPRLVYSGCRKVDGQWQALLVTEALEGFSSLDECYARGDQDRWGEAKHQRILQQIGATIARMNLAHWQHGCLYPKHIFVRVEGEAIEVALIDLEKSRRRLTVNKASQHDLKQLKRRSSWTGAQWQAFIYGYQTAFGSAIKGLQT | not soluble
8 | MGSDKIHHHHHHMAPRTKTRERIVQASLELFNQQGERCITTNHIAAHMEISPGNLYYHFANKQVIIAELFTQYETLVGSFLTLRTDRLPTIEDKRDYFLAMIDAMWRYRFLHQDLEHLLTSDAELARRYRRFSYRCLMQAMNIYRGFIKAGILQMDESQIEWTSLNTWIVLTSWVRFLCTNRENNAELNESAIRRGVYQVLMLESVFVAPQAREAFDALCETFHSSLPEALA | not soluble
9 | MGSDKIHHHHHHMARMFYDEMHDAGGECRSHYREFARWLADTPEEQLLQRRREADLLFHRAGITFTLYGDEQGTERLIPFDTIPRSIPAAEWAHIEAGCIQRVQALNLFLADLYHEQRILKAGVIPAEQVLANDQYQLAMQGLDLPGNVYAHIAGVDLVRDGSGNYYVLEDNLRTPSGVSYMLENRKMMMRLFPELFVRQRVAPIDHYPDLLLDTLKRASDVESPSVVVLTPGRFNSAYFEHAFLAREMGVELVEGADLFVRDERVYMRTTAGPQPVDVIYRRIDDAFLDPLAFNPDSLLGVPGLLAAYRAGNLVLANAIGTGVADDKSIYPYVPDMIRFYLGEDPLLHNVPTWQCRKPKELAHVLAHLPELVVKETQGSGGYGMLVGPAASREEIELFRERLKARPEAYIAQPTLSLSTCPTFVESGVAPRHIDLRPFVLSAPDRVRLVPGGLTRVALREGSLVVNSSQGGGTKDTWVVEE | not soluble
10 | MGSDKIHHHHHHMARPRKTIVSLDDTPYYHCCSRVVRKAFLCGIDSATGENFEHRRAWVEGRMFELATIFAMDICAYAVMSNHLHIVLRVDAEQAKQWTDKQVLIQWHKGFKGTLLTQRFVKDEVLDEFELKTVIDSVAVYRERLTSISWFIRALCEPIARMANKEDGCTGHFWEGRFKSQALLDEAAVLACMAYVDLNPVRAKMAATPETSDYTGIQRRINAALKGEQPNELLPFLGNERDNMPKGLMFSAKDYLLLVEDTGRIIRDDKRGAISRSSQYILDRLNIPTENWLKITKDFGHLFKGAVGSLQALSQYCEHLERKRRQSAANCQRWLCG | not soluble
11 | MGSDKIHHHHHHMASAPQANLPMFYNDLMPLNSRDHAAWKAKNADAAPWLIGQHAIPLTAEEFPQAARHYPIIFASGDNPVPLALMGLNEGVNVFVDEDGKVTQPVYIPAYVRRYPFLLAKLNPNSEELSLCFDPSSGLIGDSVDGVELFSDGQPSEATKAALGFCEQFEQAGQRTQAFIDELKKHDLLMEGEVAIQQQGNEQPFIYRGFQMVNQDKLRETRGDVLRGWAQSGLLPLLYAHLFSLELISQIFGAQVQMGKGPIPATPVPAE | not soluble
12 | MGSDKIHHHHHHMASLLALDFDGVLCDGLREYFLAAWQAGCDRDPSWPEVPEPSLEDRFRLLRPVIEQGWEMPVLLQALRREVADAEVLADWPQLCDRVLKDWGLTTTELSQAMDRVRDRWIKRDRKEWLQLHHFYPGVAERLAQQTAPWVIISTKDGRFIAELLEQIPNLQPPLAIYGKEVGVPKTQTLIQLQVEFEQIAFVEDRLPALEAAAQLESVDLYLADWGYNTDRDRQQAMTSDRIQLLRLTDFSSGRSPALAASPVES | not soluble
13 | MGSDKIHHHHHHMATANKNLKATWVATVTNLDWPSVSSVAITDEAARVSKQKEELTGILDEIVAMKMNAVIFQVVPCADAFYASDLLPWSKYLTGTLGKNPGFDPLAYAIEQAHARNIELHAWVNPYRVSMNASDATIEELNNSSSDSPASVFKTHPEWTGTAANRFVLNPGIPEVQTWVSNIVEEIVTKYDVDAIQFDDYFYYETASSLLQDDATYQKYNTNFTTKADWRRNNTYSLVDTCHKKIAAVKANVLFGVSPAGVWRNKSDDPLGSDTQAGASNYDFAYADTRKWVIDGIIDYIAPQVYWPFAREVARYDVITQWWADTVSGTGTALYIGMALYKVGTASETEPDWTVEGGVPEITRQLDLNDSLTEVSGCMLFRHMFLRASQTQQVVDYLKLRWADV | not soluble
14 | MGSDKIHHHHHHMATENALYEILTEKIKQDTLVLPTLPEVALKVRSAADDPDINLNQMSDIIAHDPALSLGMLKVANNALMGRSIKVETVPQAVTRIGLIQIKSIATAMAIEQVFVSNNDVVAMYMNKAWVKTIDIASVAISLMNIYLKENKHTSLSLDTITLASLIHNIGVLPILTEAENHPDVFANPTFLQQAIIKLSGRVGGAITRKWGFSEEFTLLAESWSDLTILPSEVHYLDFIRAGAIYHNVFKNESTKVALLNNYTKKGILPEVDYMDSDEFKGMCEDVRAMFI | not soluble
15 | MGSDKIHHHHHHMATIEILGFPHAYELTAPTSYPDALVFIHGWLNSRGYWQPVTSRLSVDFQCLSYDLRGFGESQSQLETDFHRGSSSASLSAQSLQEINLSFDSLYTPAAYAQDLAALLEQLNITSAWLVGHSLGGTIALWAAAQIPQRIKGVICINAGGGIYLKEAFEQFRMAGQRFLQVRPRWLSQLPLIDLLFTRASVSRPLDRQWARQRVIDFVVADPEAALGALLDSTTEDEVNRLPKLVSQLKQPVYFLAGTDDKVMEPKYVRHLASFHPLFQYCGDNVIEIPDCGHLAMLEQPDAVASHIKSLVIGHG | not soluble
16 | MGSDKIHHHHHHMATPETILSVKDLRVRFRTLDGAVEAVKGINIHVNAGETVAVVGESGSGKSQTMMAAMSLLASNGEATGSVDYRGRNLLTLSKSDLNKVRGAKISMIFQEPMTSLDPLYSIGNQLIEPIRRHRGLNAAEAREEALKLLRLVHIPDPERRMKSYPHEMSGGQRQRVMIAMALANDPDILIADEPTTALDVTIQAQILMLLAELQRKLGMAIVFITHDLGIVRRFADRVYVMRQGEVVEEGEAGAIFANPQHAYTKMLLAAEPTGSKAAPPANAPVVLEGRHVEVTFKIGGGFLAGEPLMLRAVDDISIRLQRNQTIGIVGESGSGKSTLGRALLRLLPSDGLIRFGDRDISTADRQAMRPLRRQMQLVFQDPFGSLSPRMTVGQVITEGLLVHEPNLSGKQRDQRAVEALREVGLDPNARNRYPHEFSGGQRQRIAIARAMILKPKMVVLDEPTSALDRSVQKQIVELLRKLQADHELSYLFISHDLSVVRAMADYIIVMKQGKIVEEGPTEAIFSNPQHVYTQTLMAAAIDVTRFRLSA | not soluble
17 | MGSDKIHHHHHHMATSQERLGMNLKKCIQRLRKVANRGPSHKARLENIDEKIVVTGTRGKSGATRWLYEILYGRGRDAFAKITGNRPLVLHDGESHPIERGRRVTLYENEAQLRQYAPVETAIFENQAIGEYTTRTVHQRFTDPDVIFLTNIRSDHLDWLGDTPTQIARSFARTIPDGVTLVVGEQRPTLRAMLKRELEETDVQIRWVLVPKALQNVPGAETILGLNDVLEALGEQPLSDRQIEAYIDEMQVRWTTLADGRVYNAASVNDIDSTEIVRRALDDNDVDTIQPLIYLRPDRRARTASFLSYLDGLYSDDVFEVTHAVGPHAELFDNQASFPVATHDASKSASAVLDAALSPGWPVFIMGNTVADFMRDLEAEIEARRVDSSQGMPEKSTSANEKRAIERPQ | not soluble
